Measured values as given in patent US20250277059A1, “ANTIBODY USED TO TREAT CORONAVIRUS INFECTION” (priority 2022, published 2025).

Assays:
[1] = tested on: pseudo-typed virus having S protein of SARS-COV-2 (WT) derived from Wuhan; format: cell-based
[2] = target: T1, Human TMPRSS2 expressed on cells (human, UniProt O15393 1-492); assay: cell-based or functional assay
[3] = target: T1, Human TMPRSS2 expressed on cells; assay: cell-based or functional assay; remark: listed apart in the source
[4] = target: Cynomolgus monkey TMPRSS2 expressed on cells (cynomolgus monkey); assay: flow cytometry, Daudi transfectant
[5] = target: T2, Human TMPRSS2 recombinant protein, extracellular region (N-terminal His tag, C-terminal Strep-tag II) (human, UniProt O15393 106-492); assay: SPR (BIAcore); rounded repeat of Table 1
T2 construct: also called Human TMPRSS2 recombinant proteins; extracellular region of human TMPRSS2

F321A = target: T3, F321A (human, UniProt O15393); assay: flow cytometry, COS7 transfectant
T3 construct: expressed on COS7 cells with GFP via IRES; also called TMPRSS2 alanine substitution F321A; RQSFMA

[6] = target: T1, Human TMPRSS2 expressed on cells; assay: flow cytometry, COS7 transfectant
[7] = target: T1, Human TMPRSS2 expressed on cells; assay: flow cytometry, Daudi transfectant
[8] = target: Mouse TMPRSS2 expressed on cells (mouse, UniProt Q9JIQ8 1-490); assay: flow cytometry, Daudi transfectant
TMPRSS-11D = target: T4, TMPRSS-11D (human, UniProt O60235); assay: ELISA, Strep-tagged protein on streptavidin plate
T4 sequence (single chain, looked up): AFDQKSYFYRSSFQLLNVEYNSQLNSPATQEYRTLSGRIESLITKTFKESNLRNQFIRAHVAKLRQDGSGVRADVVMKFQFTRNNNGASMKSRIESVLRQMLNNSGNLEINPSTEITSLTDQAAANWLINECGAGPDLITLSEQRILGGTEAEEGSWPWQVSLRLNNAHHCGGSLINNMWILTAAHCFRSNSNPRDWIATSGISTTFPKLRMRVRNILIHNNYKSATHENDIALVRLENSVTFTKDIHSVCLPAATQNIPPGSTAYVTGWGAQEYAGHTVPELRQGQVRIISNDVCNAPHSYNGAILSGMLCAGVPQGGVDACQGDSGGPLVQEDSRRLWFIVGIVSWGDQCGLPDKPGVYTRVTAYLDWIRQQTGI

TMPRSS-11E = target: T5, TMPRSS-11E (human, UniProt Q9UL52); assay: ELISA, Strep-tagged protein on streptavidin plate
T5 sequence (single chain, looked up): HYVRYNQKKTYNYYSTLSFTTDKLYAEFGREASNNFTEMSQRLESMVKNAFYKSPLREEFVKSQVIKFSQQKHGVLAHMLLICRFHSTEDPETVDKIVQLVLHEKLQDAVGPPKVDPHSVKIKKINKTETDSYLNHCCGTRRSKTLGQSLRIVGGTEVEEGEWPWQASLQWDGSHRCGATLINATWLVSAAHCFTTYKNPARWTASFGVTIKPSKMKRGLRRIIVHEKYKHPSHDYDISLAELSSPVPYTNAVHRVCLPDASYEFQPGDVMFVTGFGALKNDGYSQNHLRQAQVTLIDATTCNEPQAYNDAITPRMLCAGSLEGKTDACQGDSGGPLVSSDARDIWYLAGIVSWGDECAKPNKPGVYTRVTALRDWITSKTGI

TMPRSS-11F = TMPRSS-11F (human, UniProt Q6ZWK6); assay: ELISA, Strep-tagged protein on streptavidin plate
TMPRSS-13 = target: T6, TMPRSS-13 (human, UniProt Q9BYE2); assay: ELISA, Strep-tagged protein on streptavidin plate
T6 sequence (single chain, looked up): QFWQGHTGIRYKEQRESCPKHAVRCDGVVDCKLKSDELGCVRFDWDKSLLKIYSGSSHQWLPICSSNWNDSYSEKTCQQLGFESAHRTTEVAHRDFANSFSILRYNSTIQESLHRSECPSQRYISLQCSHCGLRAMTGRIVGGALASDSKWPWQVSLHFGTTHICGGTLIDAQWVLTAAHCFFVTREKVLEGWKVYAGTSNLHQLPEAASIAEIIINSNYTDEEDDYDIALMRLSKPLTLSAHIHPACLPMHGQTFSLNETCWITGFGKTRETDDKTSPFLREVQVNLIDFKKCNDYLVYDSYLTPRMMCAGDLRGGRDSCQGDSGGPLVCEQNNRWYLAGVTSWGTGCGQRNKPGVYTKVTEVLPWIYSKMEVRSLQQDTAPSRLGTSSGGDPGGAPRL

[9] = target: T2, Human TMPRSS2 recombinant protein, …; assay: SPR (BIAcore), captured mAb, soluble human TMPRSS2 extracellular region

T2 sequence (O15393 other isoform, or with tags, fused parts or gaps limits assumed): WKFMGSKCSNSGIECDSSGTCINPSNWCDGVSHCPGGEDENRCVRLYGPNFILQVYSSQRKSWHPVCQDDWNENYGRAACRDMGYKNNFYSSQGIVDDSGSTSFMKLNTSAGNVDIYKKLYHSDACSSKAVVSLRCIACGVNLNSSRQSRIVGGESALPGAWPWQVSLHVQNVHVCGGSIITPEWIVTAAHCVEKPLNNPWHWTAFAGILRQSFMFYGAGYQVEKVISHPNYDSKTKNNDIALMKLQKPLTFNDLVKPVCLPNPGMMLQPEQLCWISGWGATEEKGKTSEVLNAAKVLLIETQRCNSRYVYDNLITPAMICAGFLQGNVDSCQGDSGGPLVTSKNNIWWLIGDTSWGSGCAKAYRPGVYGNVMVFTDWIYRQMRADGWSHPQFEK
T1 sequence (O15393 whole entry): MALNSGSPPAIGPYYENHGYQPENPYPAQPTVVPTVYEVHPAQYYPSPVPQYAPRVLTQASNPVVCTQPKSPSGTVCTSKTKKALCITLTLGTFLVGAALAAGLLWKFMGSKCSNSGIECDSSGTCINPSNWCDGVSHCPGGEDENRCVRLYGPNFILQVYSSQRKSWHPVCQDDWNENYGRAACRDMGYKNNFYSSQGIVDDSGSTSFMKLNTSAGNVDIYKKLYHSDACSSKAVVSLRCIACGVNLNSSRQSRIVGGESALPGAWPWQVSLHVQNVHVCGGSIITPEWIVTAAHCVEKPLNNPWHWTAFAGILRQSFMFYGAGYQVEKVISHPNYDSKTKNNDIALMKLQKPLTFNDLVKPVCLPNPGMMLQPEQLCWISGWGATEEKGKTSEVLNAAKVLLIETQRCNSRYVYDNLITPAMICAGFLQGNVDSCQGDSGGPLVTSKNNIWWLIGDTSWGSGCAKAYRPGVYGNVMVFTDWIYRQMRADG
TMPRSS-11F, sequence (Q6ZWK6 54-438 limits assumed): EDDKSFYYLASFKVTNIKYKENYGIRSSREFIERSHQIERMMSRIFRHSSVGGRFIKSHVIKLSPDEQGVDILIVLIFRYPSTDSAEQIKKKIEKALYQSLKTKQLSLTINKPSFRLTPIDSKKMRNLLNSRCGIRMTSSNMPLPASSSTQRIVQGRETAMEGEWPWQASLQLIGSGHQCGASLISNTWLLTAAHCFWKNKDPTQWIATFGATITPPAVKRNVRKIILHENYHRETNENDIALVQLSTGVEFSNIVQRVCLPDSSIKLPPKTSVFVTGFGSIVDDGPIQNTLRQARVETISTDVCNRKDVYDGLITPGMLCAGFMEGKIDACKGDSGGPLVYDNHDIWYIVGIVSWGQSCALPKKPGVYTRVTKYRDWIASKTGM
T3 sequence (O15393 whole entry F321A): as the sequence (O15393 whole entry) above, with F321A counted along it
Mouse TMPRSS2 expressed on cells, sequence (Q9JIQ8 whole entry): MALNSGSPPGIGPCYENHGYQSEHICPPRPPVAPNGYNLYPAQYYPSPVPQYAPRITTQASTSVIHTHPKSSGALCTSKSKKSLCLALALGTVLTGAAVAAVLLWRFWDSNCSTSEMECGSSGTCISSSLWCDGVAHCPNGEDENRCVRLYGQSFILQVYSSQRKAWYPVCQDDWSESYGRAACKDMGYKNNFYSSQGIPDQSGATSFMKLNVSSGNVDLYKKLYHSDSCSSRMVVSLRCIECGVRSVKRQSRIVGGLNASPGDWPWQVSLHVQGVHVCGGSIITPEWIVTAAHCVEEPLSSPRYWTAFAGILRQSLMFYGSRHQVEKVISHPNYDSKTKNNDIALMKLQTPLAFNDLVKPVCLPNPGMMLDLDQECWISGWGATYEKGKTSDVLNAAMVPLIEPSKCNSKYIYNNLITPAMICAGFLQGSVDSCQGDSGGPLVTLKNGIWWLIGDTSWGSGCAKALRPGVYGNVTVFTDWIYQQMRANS

N=C(N)c1ccc2cc(OC(=O)c3ccc(N=C(N)N)cc3)ccc2c1 [Nafamostat, nafamostat]
infection inhibiting effect on WT-type virus [1]: exhibited infection inhibiting effects

B1: 1864_10 antibody (antibody, V domains shown)
VH: QVQLQQSGPALVKPGASLKISCEASGYTFTYYSINWVKQRPGQGLEWIGWIFPGSGSTYYNEKFKGKATLTIDKSSSTAYMLLSSLTSEDSAVYFCARSDYGSAYGYFDVWGTGTTVTVSS
VL: DIVLTQSPASLAVSLGQRATISCRASKSVSTSGYSYMHWYQQKPGQPPKLLIYLASNLESGVPARFSGSGSGTDFTLNIHPVEEEDAATYYCQHSRDLPLTFGAGTKLELK
Activity: Calu-3 Inhibiton [2]: 67.6 | IC90, First run; live SARS-CoV-2 infection of Calu-3 cells [3]: 0.11 µg/mL | IC90, Second run; live SARS-CoV-2 infection of Calu-3 cells [3]: 0.16 µg/mL | Q2 (percent of cells GFP+ and stained) [4]: 2.27 | Kd [5]: 5.1 nM | Q2 (percent of cells GFP+ and stained) (F321A): 7.85 | Q2 (percent of cells GFP+ and stained) [6]: 10.5 | Q2 (percent of cells GFP+ and stained) [7]: 100 | Q2 (percent of cells GFP+ and stained) [8]: 98.1 | binding result (TMPRSS-11D): no binding (tested: 10 µg/mL) | binding result (TMPRSS-11E): no binding (tested: 10 µg/mL) | binding result (TMPRSS-11F): no binding (tested: 10 µg/mL) | binding result (TMPRSS-13): no binding (tested: 10 µg/mL) | Kd [9]: 5.14 nM | koff [9]: 0.00289 s⁻¹ | kon [9]: 563000 M⁻¹ s⁻¹
